Reference: patent US20040132093A1 (AVENTIS PHARMA S A, published 2004)

How the values were obtained:
[1] = target: T1, protein from fusion between YFP and the insulin receptor (Boute et al., 2001) (UniProt P06213 28-1382); assay: BRET in living cells coexpressing the fusion proteins
T1 construct: whole, on cells; Specificity control in BRET; also called insulin receptor-YFP; not shown: YFP

[2] = target: T2, OBRs-YFP fusion protein (short form of the leptin receptor fused at its C-terminal end to YFP) (human); assay: BRET in living cells, fusion proteins expressed in equimolar amounts
T2 construct: also called OB-R-YFP; acceptor fusion protein
Experimental: 48 hours after transfection, HeLa, COS and HEK 293 cells expressing OBR were detached and washed with PBS. 1-2×10⁵ cells were distributed into 96-well optical plates (Packard Instrument Company, Meriden, Conn.) in the presence or absence of ligands, at 25° C. Membranes prepared from cells expressing OBR were used for the measurements of BRET. The substrate, coelenterazine h (Molecular Probes, Eugene, Oreg.), was added at a final concentration of 5 μM and the reading was carried out with a Fusion™ fluoro/luminometer (Packard Instrument Company, Meriden, Conn.), which permits the sequential integration of the luminescence signals detected with two filters (Luc filter: 485+10 nm; YFP filter: 530±12.5 nm). The BRET ratio is defined as the difference in the emission at 530 nm/485 nm of the cotransfected Luc and YFP fusion proteins and the emission at 530 nm/485 nm of the Luc fusion protein alone. The results are expressed in milliBRET units (mBU), 1 mBRET unit corresponding to the value of the BRET ratio multiplied by 1 000. The following ligands were used to determine the specificity of the assay: recombinant human erythropoietin (EPO), insulin (Ins), lipopolysaccharide (LPS, Sigma Aldrich, St. Louis, USA), recombinant human trombopoietin (TPO), GM-CSF, interleukin 3 (IL3), interleukin 6 (IL6), prolactin (PRL), SCF, EGF and TNFα. […]

binding result [1]: no binding
binding result [2]: binds
B1: OBRs-Luc fusion protein (short form of the leptin receptor fused at its C-terminal end to Renilla luciferase) (receptor)
chain: ASISARQEQKLISEEDLTRYPITPWRFKLSCMPPNSTYDYFLLPAGLSKNTSNSNGHYETAVEPKFNSSGTHFSNLSKTTFHCCFRSEQDRNCSLCADNIEGTTFVSTVNSLVFQQIDANWNIQCWLKGDLKLFICYVESLFKNLFRNYNYKVHLLYVLPEVLEDSPLVPQKGSFQMVHCNCSVHECCECLVPVPTAKLNDTLLMCLKITSGGVIFRSPLMSVQPINMVKPDPPLGLHMEITDDGNLKISWSSPPLVPFPLQYQVKYSENSTTVIREADKIVSATSLLVDSILPGSSYEVQVRGKRLDGPGIWSDWSTPRVFTTQDVIYFPPKILTSVGSNVSFHCIYKKENKIVPSKEIVWWMNLAEKIPQSQYDVVSDHVSKVTFFNLNETKPRGKFTYDAVYCCNEHECHHRYAELYVIDVNINISCETDGYLTKMTCRWSTSTIQSLAESTLQLRYHRSSLYCSDIPSIHPISEPKDCYLQSDGFYECIFQPIFLLSGYTMWIRINHSLGSLDSPPTCVLPDSVVKPLPPSSVKAEITINIGLLKISWEKPVFPENNLQFQIRYGLSGKEVQWKMYEVYDAKSKSVSLPVPDLCAVYAVQVRCKRLDGLGYWSNWSNPAYTVVMDIKVPMRGPEFWRIINGDTMKKEKNVTLLWKPLMKNDSLCSVQRYVINHHTSCNGTWSEDVGNHTKFTFLWTEQAHTVTVLAINSIGASVANFNLTFSWPMSKVNIVQSLSAYPLNSSCVIVSWILSPSDYKLMYFIIEWKNLNEDGEIKWLRISSSVKKYYIHDHFIPIEKYQFSLYPIFMEGVGKPKIINSFTQDDIEKHQSDAGLYVIVPVIISSSILLLGTLLISHQRMKKLFWEDVPNPKNCSWAQGLNFQKRTDILDPPARATMTSKVYDPEQRKRMITGPQWWARCKQMNVLDSFINYYDSEKHAENAVIFLHGNAASSYLWRHVVPHIEPVARCIIPDLIGMGKSGKSGNGSYRLLDHYKYLTAWFELLNLPKKIIFVGHDWGACLAFHYSYEHQDKIKAIVHAESVVDVIESWDEWPDIEEDIALIKSEEGEKMVLENNFFVETMLPSKIMRKLEPEEFAAYLEPFKEKGEVRRPTLSWPREIPLVKGGKPDVVQIVRNYNAYLRASDDLPKMFIESDPGFFSNAIVEGAKKFPNTEFVKVKGLHFSQEDAPDEMGKYIKSFVERVLKNEQ
notes: Expressed in COS, HeLa or HEK 293 cells; also assayed in membranes and extracts; also called OB-R-Luc; donor fusion protein
